Assay results reported in publication PMC3479173.

Key:
THAP1 THAP domain N12K [1] = target: T1, THAP1 THAP domain N12K (human, UniProt Q9NVV9 1-81, N12K); test: fluorescence quenching
T1 sequence: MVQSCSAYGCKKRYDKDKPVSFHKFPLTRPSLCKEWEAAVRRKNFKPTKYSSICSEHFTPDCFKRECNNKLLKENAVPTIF

THAP1 THAP domain WT [2] = target: T2, THAP1 THAP domain WT (human, UniProt Q9NVV9 1-81); test: fluorescence quenching
T2 sequence: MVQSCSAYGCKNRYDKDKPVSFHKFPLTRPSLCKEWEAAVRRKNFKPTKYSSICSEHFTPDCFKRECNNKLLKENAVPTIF

THAP1 THAP domain N12K [3] = target: T1, THAP1 THAP domain N12K; test: ITC
THAP1 THAP domain WT [4] = target: T2, THAP1 THAP domain WT; test: ITC
THAP1 THAP domain Y8C [5] = target: T3, THAP1 THAP domain Y8C (human, UniProt Q9NVV9 1-81, Y8C); test: fluorescence quenching
T3 sequence: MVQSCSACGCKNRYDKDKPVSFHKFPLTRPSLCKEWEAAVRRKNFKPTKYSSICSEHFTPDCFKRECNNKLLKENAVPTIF

THAP1 THAP domain F81L [6] = target: T4, THAP1 THAP domain F81L (human, UniProt Q9NVV9 1-81, F81L); test: fluorescence quenching
T4 sequence: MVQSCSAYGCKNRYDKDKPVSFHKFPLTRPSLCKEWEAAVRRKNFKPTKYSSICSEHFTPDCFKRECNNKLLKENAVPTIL

THAP1 THAP domain D17G = target: T5, THAP1 THAP domain D17G (human, UniProt Q9NVV9 1-81, D17G); test: fluorescence quenching
T5 sequence: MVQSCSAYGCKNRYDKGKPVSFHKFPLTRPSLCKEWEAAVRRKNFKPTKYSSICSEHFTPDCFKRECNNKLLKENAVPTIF

THAP1 THAP domain Y8C [7] = target: T3, THAP1 THAP domain Y8C; test: ITC
THAP1 THAP domain F81L [8] = target: T4, THAP1 THAP domain F81L; test: ITC

B1: 14-bp non-specific DNA (ns) (dsDNA)
DNA 1: GATTTGCATTTTAA
DNA 2: TTAAAATGCAAATC
Kd (THAP1 THAP domain N12K [1]): 400 ± 65 nM | Kd (THAP1 THAP domain WT [2]): 1800 ± 150 nM | Kd (THAP1 THAP domain N12K [3]): 1750 ± 500 nM | Kd (THAP1 THAP domain WT [4]): 8930 ± 1280 nM

B2: RRM1 16-bp DNA probe (dsDNA)
DNA 1: GCTTGTGTGGGCAGCG
DNA 2: CGCTGCCCACACAAGC
Kd (THAP1 THAP domain Y8C [5]): 230 ± 20 nM | Kd (THAP1 THAP domain F81L [6]): 100 ± 10 nM | Kd (THAP1 THAP domain D17G): 25 ± 5 nM | Kd (THAP1 THAP domain WT [2]): 150 ± 10 nM | Kd (THAP1 THAP domain Y8C [7]): 510 ± 100 nM | Kd (THAP1 THAP domain F81L [8]): 700 ± 60 nM | Kd (THAP1 THAP domain WT [4]): 540 ± 190 nM
